The results in this text go back to article PMC5618490, “Arabidopsis E3 Ubiquitin Ligases PUB22 and PUB23 Negatively Regulate Drought Tolerance by Targeting ABA Receptor PYL9 for Degradation” (International Journal of Molecular Sciences, 2017).

One assay addresses T1, MBP-PUB22 (Arabidopsis thaliana, UniProt Q9SVC6 1-435).
T1 construct: PUB22, plant U-box E3 ubiquitin ligase, Arabidopsis thaliana; Kept on the amylose resin for the pull-down; source: E. coli BL21 (DE3), purified (amylose resin); not shown: MBP, N-terminal, kept
T1 sequence (looked up): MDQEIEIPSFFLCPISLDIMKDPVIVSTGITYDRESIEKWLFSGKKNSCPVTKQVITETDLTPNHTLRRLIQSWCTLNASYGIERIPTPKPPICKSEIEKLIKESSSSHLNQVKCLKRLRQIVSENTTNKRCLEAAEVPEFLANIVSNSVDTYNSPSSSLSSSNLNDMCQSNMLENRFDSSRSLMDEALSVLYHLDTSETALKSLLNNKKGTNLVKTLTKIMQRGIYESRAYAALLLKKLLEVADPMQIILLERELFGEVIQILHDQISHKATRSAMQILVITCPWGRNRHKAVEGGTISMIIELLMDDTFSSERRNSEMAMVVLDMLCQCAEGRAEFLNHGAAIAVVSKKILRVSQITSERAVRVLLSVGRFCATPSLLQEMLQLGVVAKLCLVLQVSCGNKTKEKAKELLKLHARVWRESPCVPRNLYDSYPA
The experiment in a line: pull-down; MBP-PUBs or MBP on amylose resin incubated with GST-PYLs for 1 h at room temperature in 20 mM Tris-HCl pH 7.2, 10 mM MgCl2, 2 mM DTT; washed five times; blot with anti-GST antibody. The note with it: both partners purified.

The target of a further assay is T2, MBP-PUB23 (Arabidopsis thaliana, UniProt Q84TG3 1-411).
T2 construct: PUB23, plant U-box E3 ubiquitin ligase, Arabidopsis thaliana; Kept on the amylose resin for the pull-down; source: E. coli BL21 (DE3), purified (amylose resin); not shown: MBP, N-terminal, kept
T2 sequence (looked up): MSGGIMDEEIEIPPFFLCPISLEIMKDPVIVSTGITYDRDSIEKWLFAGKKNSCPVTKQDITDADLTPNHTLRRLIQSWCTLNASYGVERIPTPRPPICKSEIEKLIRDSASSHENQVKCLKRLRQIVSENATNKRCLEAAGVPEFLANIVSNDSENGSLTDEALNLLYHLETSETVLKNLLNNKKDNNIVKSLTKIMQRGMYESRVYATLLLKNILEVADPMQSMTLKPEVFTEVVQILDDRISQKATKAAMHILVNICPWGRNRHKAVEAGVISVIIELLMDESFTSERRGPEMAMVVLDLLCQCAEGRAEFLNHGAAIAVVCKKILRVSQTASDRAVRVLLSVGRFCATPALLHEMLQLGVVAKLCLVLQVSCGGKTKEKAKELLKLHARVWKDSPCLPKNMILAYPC
The assay is described as above. The note with it: both partners purified.

B1: GST-PYL8 (receptor, Arabidopsis thaliana, UniProt Q9FGM1 1-188, looked up)
chain: MEANGIENLTNPNQEREFIRRHHKHELVDNQCSSTLVKHINAPVHIVWSLVRRFDQPQKYKPFISRCVVKGNMEIGTVREVDVKSGLPATRSTERLELLDDNEHILSIRIVGGDHRLKNYSSIISLHPETIEGRIGTLVIESFVVDVPEGNTKDETCYFVEALIKCNLKSLADISERLAVQDTTESRV
notes: PYL8, PYR/PYL/RCAR family ABA receptor, Arabidopsis thaliana; cDNA fused to the C terminus of the GST tag in pCold-GST; source: E. coli DE3 cells, purified (Glutathione Sepharose 4B); not shown: GST, N-terminal, kept
With B1, the binding result in the assay with MBP-PUB22 is reported as “binds”.

B2: GST-PYL9 (receptor, Arabidopsis thaliana, UniProt Q84MC7 1-187, looked up)
chain: MMDGVEGGTAMYGGLETVQYVRTHHQHLCRENQCTSALVKHIKAPLHLVWSLVRRFDQPQKYKPFVSRCTVIGDPEIGSLREVNVKSGLPATTSTERLELLDDEEHILGIKIIGGDHRLKNYSSILTVHPEIIEGRAGTMVIESFVVDVPQGNTKDETCYFVEALIRCNLKSLADVSERLASQDITQ
notes: PYL9, PYR/PYL/RCAR family ABA receptor, Arabidopsis thaliana; cDNA fused to the C terminus of the GST tag in pCold-GST between EcoRI and SalI; source: E. coli, purified (Glutathione Sepharose 4B, eluted with reduced glutathione); not shown: GST, N-terminal, kept
As to B2, the binding result with MBP-PUB23 is “binds”.

B3: GST-PYL7 (receptor, Arabidopsis thaliana, UniProt Q1ECF1 1-211, looked up)
chain: MEMIGGDDTDTEMYGALVTAQSLRLRHLHHCRENQCTSVLVKYIQAPVHLVWSLVRRFDQPQKYKPFISRCTVNGDPEIGCLREVNVKSGLPATTSTERLEQLDDEEHILGINIIGGDHRLKNYSSILTVHPEMIDGRSGTMVMESFVVDVPQGNTKDDTCYFVESLIKCNLKSLACVSERLAAQDITNSIATFCNASNGYREKNHTETNL
notes: PYL7, PYR/PYL/RCAR family ABA receptor, Arabidopsis thaliana; cDNA fused to the C terminus of the GST tag in pCold-GST; source: E. coli DE3 cells, purified (Glutathione Sepharose 4B); not shown: GST, N-terminal, kept
Turning to B3, the binding result with MBP-PUB22 is “binds”.

B4: GST-PYL5 (receptor, Arabidopsis thaliana, UniProt Q9FLB1 1-203, looked up)
chain: MRSPVQLQHGSDATNGFHTLQPHDQTDGPIKRVCLTRGMHVPEHVAMHHTHDVGPDQCCSSVVQMIHAPPESVWALVRRFDNPKVYKNFIRQCRIVQGDGLHVGDLREVMVVSGLPAVSSTERLEILDEERHVISFSVVGGDHRLKNYRSVTTLHASDDEGTVVVESYIVDVPPGNTEEETLSFVDTIVRCNLQSLARSTNRQ
notes: PYL5, PYR/PYL/RCAR family ABA receptor, Arabidopsis thaliana; cDNA fused to the C terminus of the GST tag in pCold-GST; source: E. coli DE3 cells, purified (Glutathione Sepharose 4B); not shown: GST, N-terminal, kept
Take B4: the binding result with MBP-PUB22 is reported as “binds”.
